Literature values, collected in paper PMC4773801.

Target: bee venom group III sPLA2 (Apis mellifera) (UniProt P00630)
UniProt P00630, sequence (P00630 34-167): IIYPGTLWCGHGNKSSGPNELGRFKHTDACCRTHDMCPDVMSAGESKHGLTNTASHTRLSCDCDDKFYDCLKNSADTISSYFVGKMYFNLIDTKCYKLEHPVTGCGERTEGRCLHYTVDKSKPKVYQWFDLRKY

mannose receptor CD206 (from UniProt P22897)
Kd: 4.79 µM
